Tests used:
Experiment in all cases: Kinase Profiling Assay
Type in all cases: biochemical
Details in all cases: 100 μM peptide
Met(Y1248C)(h) = Met(Y1248C)(h) (Homo sapiens, UniProt P08581, Y1230C)
Outline: (§1)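 First, MK2 inhibitor peptides were applied to a panel of 266 human kinases; then each kinase's activity was measured in duplicate to assess off-target inhibition.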

ARK5(h) = target: T1, ARK5(h) (Homo sapiens, UniProt O60285)
T1 sequence (O60285 1-661): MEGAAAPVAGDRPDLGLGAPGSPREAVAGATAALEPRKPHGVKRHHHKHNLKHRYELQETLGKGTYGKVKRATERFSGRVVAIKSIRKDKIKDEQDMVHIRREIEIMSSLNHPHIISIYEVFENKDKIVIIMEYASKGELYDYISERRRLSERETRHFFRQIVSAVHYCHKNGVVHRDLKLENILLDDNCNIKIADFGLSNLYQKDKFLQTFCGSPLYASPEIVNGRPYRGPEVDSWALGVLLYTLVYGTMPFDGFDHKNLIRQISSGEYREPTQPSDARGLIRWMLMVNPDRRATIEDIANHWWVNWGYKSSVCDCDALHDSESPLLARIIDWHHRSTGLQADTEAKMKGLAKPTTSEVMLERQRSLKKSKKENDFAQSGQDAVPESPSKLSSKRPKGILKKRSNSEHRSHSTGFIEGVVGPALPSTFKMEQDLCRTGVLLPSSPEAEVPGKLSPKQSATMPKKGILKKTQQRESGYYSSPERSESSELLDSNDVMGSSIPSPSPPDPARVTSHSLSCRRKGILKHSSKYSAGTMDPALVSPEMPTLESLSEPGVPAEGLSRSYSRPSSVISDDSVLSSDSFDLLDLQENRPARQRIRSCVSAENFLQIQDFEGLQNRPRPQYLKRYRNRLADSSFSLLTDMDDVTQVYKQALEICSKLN
Outline: as §1

KDR(h) = KDR(h) (Homo sapiens, UniProt P35968)
KDR(h), sequence (P35968 20-1356): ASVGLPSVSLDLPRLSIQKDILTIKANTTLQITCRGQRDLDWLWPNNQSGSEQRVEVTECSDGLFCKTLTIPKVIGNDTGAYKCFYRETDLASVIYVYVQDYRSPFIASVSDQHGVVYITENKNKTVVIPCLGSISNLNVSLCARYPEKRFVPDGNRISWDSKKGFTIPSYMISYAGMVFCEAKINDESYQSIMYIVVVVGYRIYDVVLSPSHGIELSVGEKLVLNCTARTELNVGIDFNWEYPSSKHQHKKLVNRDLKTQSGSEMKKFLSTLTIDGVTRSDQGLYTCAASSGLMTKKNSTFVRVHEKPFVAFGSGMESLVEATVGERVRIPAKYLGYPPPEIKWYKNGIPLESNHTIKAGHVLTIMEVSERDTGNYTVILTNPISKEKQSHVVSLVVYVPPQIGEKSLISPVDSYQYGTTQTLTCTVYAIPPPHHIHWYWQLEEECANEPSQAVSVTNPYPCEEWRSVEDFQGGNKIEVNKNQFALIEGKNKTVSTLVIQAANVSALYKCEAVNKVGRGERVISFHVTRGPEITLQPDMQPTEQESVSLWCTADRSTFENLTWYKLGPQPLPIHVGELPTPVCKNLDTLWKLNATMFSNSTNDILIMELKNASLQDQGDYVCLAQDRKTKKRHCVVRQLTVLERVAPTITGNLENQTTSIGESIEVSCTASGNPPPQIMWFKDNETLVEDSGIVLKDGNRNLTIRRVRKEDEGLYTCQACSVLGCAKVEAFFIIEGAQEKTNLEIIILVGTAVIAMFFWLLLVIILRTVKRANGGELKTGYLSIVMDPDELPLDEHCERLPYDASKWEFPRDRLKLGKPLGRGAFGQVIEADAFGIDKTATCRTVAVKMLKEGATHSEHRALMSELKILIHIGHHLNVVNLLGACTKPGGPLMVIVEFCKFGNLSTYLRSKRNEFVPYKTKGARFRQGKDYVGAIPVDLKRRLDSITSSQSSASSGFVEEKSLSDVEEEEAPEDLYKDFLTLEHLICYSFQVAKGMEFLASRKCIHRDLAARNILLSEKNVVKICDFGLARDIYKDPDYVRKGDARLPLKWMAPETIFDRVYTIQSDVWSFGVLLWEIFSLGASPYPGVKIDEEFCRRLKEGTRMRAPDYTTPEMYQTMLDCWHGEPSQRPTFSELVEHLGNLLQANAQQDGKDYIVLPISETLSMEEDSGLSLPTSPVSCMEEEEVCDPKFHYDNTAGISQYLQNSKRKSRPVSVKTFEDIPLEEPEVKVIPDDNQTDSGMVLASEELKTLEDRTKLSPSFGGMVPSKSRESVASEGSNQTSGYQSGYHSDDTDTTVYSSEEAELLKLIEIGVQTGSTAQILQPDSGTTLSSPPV
Outline: as §1

SAPK3(h) = target: T2, SAPK3(h) (Homo sapiens, UniProt P53778)
T2 sequence (P53778 1-367): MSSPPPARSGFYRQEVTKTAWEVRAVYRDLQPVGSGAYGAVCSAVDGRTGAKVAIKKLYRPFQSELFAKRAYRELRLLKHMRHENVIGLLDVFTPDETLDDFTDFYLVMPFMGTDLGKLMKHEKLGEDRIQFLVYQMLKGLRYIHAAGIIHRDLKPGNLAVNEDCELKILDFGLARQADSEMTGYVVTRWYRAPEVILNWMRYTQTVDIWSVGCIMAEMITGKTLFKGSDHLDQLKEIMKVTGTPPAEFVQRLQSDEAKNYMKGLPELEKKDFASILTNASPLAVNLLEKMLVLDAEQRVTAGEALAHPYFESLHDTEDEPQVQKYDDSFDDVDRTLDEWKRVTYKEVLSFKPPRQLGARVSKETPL
Outline: as §1

HIPK2(h) = target: T3, HIPK2(h) (Homo sapiens, UniProt Q9H2X6)
T3 construct: purchased Millipore
T3 sequence (Q9H2X6 whole entry): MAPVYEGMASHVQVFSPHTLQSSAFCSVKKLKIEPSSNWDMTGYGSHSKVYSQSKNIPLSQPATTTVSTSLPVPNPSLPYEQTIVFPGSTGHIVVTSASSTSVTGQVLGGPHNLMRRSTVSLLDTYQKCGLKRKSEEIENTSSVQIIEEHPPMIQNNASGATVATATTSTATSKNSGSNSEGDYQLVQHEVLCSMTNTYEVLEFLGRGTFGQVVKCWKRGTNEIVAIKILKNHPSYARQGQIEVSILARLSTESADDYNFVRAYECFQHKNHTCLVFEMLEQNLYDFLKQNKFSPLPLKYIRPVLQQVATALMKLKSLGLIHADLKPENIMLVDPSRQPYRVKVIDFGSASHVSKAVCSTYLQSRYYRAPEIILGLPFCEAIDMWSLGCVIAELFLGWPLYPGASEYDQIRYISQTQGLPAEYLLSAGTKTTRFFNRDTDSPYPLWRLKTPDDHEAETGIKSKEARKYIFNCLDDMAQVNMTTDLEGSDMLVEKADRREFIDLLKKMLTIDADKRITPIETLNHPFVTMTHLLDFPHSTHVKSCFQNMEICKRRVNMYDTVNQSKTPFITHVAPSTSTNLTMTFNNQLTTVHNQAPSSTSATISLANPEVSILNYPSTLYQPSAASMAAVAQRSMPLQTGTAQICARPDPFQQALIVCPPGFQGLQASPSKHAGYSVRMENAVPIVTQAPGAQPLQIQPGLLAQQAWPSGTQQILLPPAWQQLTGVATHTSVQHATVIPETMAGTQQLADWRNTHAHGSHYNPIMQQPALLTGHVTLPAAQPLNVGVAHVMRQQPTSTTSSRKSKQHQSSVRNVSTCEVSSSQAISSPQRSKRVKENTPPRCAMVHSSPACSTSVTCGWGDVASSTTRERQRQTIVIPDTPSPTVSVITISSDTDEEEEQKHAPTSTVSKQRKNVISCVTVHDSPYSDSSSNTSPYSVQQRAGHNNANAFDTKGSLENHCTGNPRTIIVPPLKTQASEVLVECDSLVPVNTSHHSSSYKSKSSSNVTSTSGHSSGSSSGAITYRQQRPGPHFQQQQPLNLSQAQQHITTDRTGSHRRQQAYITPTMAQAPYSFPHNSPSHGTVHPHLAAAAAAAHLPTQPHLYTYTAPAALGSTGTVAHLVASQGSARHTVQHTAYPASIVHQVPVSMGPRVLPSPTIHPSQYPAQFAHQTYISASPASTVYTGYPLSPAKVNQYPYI
Outline: as §1

PKCβI(h) = PKCβI(h) (Homo sapiens, UniProt P05771)
PKCβI(h), sequence (P05771 whole entry): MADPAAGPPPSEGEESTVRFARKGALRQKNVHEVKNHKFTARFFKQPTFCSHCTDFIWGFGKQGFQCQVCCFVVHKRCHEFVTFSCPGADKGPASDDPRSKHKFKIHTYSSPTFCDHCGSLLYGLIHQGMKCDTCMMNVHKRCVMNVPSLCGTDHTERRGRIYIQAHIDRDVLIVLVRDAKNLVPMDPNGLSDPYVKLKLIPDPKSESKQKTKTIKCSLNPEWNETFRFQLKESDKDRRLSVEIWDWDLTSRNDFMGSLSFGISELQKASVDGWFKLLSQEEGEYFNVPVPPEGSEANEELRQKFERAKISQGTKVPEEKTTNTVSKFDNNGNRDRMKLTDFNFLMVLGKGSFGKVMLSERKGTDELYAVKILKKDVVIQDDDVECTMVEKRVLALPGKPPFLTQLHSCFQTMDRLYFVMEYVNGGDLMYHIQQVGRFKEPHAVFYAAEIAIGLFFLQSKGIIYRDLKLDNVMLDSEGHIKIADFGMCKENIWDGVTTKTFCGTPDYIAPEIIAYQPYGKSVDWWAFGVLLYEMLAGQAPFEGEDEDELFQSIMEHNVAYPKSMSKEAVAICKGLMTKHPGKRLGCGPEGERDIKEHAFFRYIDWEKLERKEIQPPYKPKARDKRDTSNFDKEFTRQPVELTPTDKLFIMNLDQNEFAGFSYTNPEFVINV
Outline: as §1

EphA3(h) = target: T4, EphA3(h) (Homo sapiens, UniProt P29320)
T4 sequence (P29320 21-983): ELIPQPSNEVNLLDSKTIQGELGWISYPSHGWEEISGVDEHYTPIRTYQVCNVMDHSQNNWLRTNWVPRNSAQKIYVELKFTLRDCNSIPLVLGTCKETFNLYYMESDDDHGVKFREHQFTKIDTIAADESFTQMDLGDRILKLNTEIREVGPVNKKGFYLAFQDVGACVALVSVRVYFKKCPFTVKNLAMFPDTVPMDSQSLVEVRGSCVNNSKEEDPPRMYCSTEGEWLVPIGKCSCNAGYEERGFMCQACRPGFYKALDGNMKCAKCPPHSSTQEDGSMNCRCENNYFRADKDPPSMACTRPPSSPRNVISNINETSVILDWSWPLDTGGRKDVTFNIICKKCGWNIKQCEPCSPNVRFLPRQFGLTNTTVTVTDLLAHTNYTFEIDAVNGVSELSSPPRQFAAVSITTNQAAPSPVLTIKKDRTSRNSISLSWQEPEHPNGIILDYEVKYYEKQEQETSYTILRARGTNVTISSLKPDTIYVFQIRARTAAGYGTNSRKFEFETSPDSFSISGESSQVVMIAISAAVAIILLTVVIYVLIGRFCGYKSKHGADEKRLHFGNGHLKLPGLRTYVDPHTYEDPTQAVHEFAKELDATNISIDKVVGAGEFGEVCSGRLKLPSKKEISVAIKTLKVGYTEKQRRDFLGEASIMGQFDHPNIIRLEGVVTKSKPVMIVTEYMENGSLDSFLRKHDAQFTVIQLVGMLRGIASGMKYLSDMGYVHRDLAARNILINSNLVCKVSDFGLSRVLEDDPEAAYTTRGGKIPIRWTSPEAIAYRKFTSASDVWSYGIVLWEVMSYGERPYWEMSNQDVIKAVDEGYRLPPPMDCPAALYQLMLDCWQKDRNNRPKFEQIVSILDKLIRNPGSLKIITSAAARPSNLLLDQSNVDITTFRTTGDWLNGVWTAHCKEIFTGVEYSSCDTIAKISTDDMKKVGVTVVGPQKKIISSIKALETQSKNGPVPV
Outline: as §1

Aurora-B(h) = Aurora-B(h) (Homo sapiens, UniProt Q96GD4)
Aurora-B(h), sequence (Q96GD4 whole entry): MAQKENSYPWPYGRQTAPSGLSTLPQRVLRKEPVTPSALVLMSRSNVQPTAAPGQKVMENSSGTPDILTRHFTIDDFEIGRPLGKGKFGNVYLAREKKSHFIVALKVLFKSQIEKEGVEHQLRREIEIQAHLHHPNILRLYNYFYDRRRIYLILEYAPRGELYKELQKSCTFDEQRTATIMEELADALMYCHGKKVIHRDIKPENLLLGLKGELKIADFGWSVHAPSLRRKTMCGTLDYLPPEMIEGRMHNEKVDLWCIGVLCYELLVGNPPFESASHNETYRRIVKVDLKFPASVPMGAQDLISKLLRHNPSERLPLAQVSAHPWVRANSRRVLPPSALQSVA
Outline: as §1

cKit(h) = cKit(h) (Homo sapiens, UniProt P10721)
Outline: as §1

PKCα(h) = PKCα(h) (Homo sapiens, UniProt P17252)
Outline: as §1

PKCθ(h) = target: T5, PKCθ(h) (Homo sapiens, UniProt Q04759)
T5 construct: purchased Millipore (IC50 Profiler Express service)
T5 sequence (Q04759 whole entry): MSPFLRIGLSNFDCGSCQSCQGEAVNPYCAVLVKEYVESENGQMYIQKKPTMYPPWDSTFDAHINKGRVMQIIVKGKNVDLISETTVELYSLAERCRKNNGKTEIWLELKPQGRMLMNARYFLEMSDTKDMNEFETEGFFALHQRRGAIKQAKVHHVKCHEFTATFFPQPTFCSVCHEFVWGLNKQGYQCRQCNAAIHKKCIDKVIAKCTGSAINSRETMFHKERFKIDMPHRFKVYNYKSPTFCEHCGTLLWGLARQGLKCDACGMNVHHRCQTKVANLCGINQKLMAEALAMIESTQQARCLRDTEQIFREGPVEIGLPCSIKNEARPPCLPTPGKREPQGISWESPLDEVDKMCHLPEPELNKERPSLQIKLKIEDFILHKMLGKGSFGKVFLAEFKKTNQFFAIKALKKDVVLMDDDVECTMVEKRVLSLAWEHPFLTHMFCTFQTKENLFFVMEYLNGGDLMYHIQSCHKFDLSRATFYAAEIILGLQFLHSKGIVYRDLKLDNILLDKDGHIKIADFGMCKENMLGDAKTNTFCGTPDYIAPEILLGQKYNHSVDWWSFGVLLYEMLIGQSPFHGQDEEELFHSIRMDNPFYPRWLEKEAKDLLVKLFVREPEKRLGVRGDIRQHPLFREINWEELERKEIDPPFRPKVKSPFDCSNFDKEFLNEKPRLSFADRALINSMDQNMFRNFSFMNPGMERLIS
Outline: as §1

Sequence	Met(Y1248C)(h) % activity (Met(Y1248C)(h)) [%]	ARK5(h) % activity (ARK5(h)) [%]	KDR(h) % activity (KDR(h)) [%]	SAPK3(h) % activity (SAPK3(h)) [%]	HIPK2(h) % activity (HIPK2(h)) [%]	PKCβI(h) % activity (PKCβI(h)) [%]	EphA3(h) % activity (EphA3(h)) [%]	Aurora-B(h) % activity (Aurora-B(h)) [%]	cKit(h) % activity (cKit(h)) [%]	PKCα(h) % activity (PKCα(h)) [%]	PKCθ(h) % activity (PKCθ(h)) [%]
FAKLAARLYRKALARQLGVAA [MMI-0300]	84	78	101	84	73	78	6	128	53	89	88
KAFAKLAARLYRKALARQLGVAA [MMI-0400]	36	69	94	79	90	78	12	150	43	86	76
YARAAARQARAKALNRQLGVA (Mammalian) [MMI-0200]	141	93	110	97		98		166	110	100	101
HRRIKAWLKKIKALARQLGVAA (Mammalian) [MMI-0500]	73	20	15	24	38	1	33	5	45	3	62

From patent US10562947B2, “Compositions and methods for preventing or treating diseases, conditions or processes characterized by aberrant fibroblast proliferation and extracellular matrix deposition” (MOERAE MATRIX, INC., priority 2011, dated 2020)
